Patent publication US20250242021A1 (published 2025)

What was measured:
[1] = target: T1, minor histocompatibility antigen (miHA) HA-1, 'H' epitope peptide on HLA-A*02:06 (human); assay: activation reporter or marker
T1 peptide: VLHDDLLEA

[2] = target: T2, minor histocompatibility antigen (miHA) HA-1, 'R' epitope (non-target allelic variant) peptide on HLA-A*02:01 (human); assay: killing
T2 peptide: VLRDDLLEA

[3] = target: T3, minor histocompatibility antigen (miHA) HA-1, 'H' epitope peptide on HLA-A*02:01 (human); assay: killing
T3 peptide: VLHDDLLEA

binding result [1]: recognises
B1: anti-HA-1 'H' epitope TCR (TCR, V domains shown)
Valpha: AQSVAQPEDQVNVAEGNPLTVKCTYSVSGNPYLFWYVQYPNRGLQFLLKYITGDNLVKGSYGFEAEFNKSQTSFHLKKPSALVSDSALYFCAVRAPTSGTYKYIFGTGTRLKVLA
Vbeta: DTGVSQDPRHKITKRGQNVTFRCDPISEHNRLYWYRQTLGQGPEFLTYFQNEAQLEKSRLLSDRFSAERPKGSFSTLEIQRTEQGDSAMYLCASSLVSGNEQFFGPGTRLTVL
binding result [2]: no recognition | binding result [3]: recognises
